Source: paper PMC12057046 (2025)

B1: GST-tagged USP8 MIT domain (1-142) [human] / DBP 116-131 peptide, cellulose-bound (SPOT array) [human] (parent complex)
chain 1: MPAVASVPKELYLSSSLKDLNKKTEVKPEKISTKSYVHSALKIFKTAEECRLDRDEERAYVLYMKYVTVYNLIKKRPDFKQQQDYFHSILGPGNIKKAVEEAERLSESLKLRYEEAEVRKKLEEKDRQEEAQRLQQKRQETG
chain 2: YVDLDAFLLEHGLPPS

Variants of: B1
Assay: SPOT array alanine scanning; read off a plot

Compared with chain 2 YVDLDAFLLEHALPPS [chain 2 G12A], chain 2 YVDLDAFLLEHGLAPS [chain 2 P14A] is higher in screen value: ~-87% for the first, ~-5% for the second.

Work on chain 2 YVDLDAFLLEHGAPPS [chain 2 L13A] yielded a screen value of ~-22%.
